Measured values reported in patent US20160152725A1 (Memorial Sloan Kettering, published 2016).
Substitutions are numbered along the chain they refer to. Names may count otherwise.

How the values were obtained:
[1] = target: HLA-A2 molecule on the surface of tumor cell lines (human); assay: flow cytometry on LAN-1 cells (NB)
[2] = target: HLA-A2 molecule on the surface of tumor cell lines (human); assay: flow cytometry on SKNJB cells (NB)
[3] = target: HLA-A2 molecule on the surface of tumor cell lines (human); assay: flow cytometry on SKNLD cells (NB)
[4] = target: HLA-A2 molecule on the surface of tumor cell lines (human); assay: flow cytometry on HepG2 cells (Liver)
[5] = target: HLA-A2 molecule on the surface of tumor cell lines (human); assay: flow cytometry on SKN-JC-1 cells (NB)
[6] = target: HLA-A2 molecule on the surface of tumor cell lines (human); assay: flow cytometry on SKN-JC-2 cells (NB)
[7] = target: HLA-A2 molecule on the surface of tumor cell lines (human); assay: flow cytometry on SW480 cells (Colon)
[8] = target: HLA-A2 molecule on the surface of tumor cell lines (human); assay: flow cytometry on MCF-7 cells (Breast)
[9] = target: HLA-A2 molecule on the surface of tumor cell lines (human); assay: flow cytometry on SKBR3 cells (Breast)
[10] = target: HLA-A2 molecule on the surface of tumor cell lines (human); assay: flow cytometry on K562 cells (Leukemia)
[11] = target: HLA-A2 molecule on the surface of tumor cell lines (human); assay: flow cytometry on SKHEP-1 cells (Liver)
[12] = target: HLA-A2 molecule on the surface of tumor cell lines (human); assay: flow cytometry on Colo 205 cells (Colon)
[13] = target: HLA-A2 molecule on the surface of tumor cell lines (human); assay: flow cytometry on SKOV-3 cells (Ovarian)
[14] = target: HLA-A2 molecule on the surface of tumor cell lines (human); assay: flow cytometry on THP-1 cells (Leukemia)
[15] = target: HLA-A2 molecule on the surface of tumor cell lines (human); assay: flow cytometry on BV-173 cells (Leukemia)
[16] = target: HLA-A2 molecule on the surface of tumor cell lines (human); assay: flow cytometry on Molt-4 cells (Leukemia)
[17] = target: HLA-A2 molecule on the surface of tumor cell lines (human); assay: flow cytometry on OVCAR-3 cells (Ovarian)
[18] = target: HLA-A2 molecule on the surface of tumor cell lines (human); assay: flow cytometry on BA25-17 cells (Leukemia)
[19] = target: HLA-A2 molecule on the surface of tumor cell lines (human); assay: flow cytometry on BA25-69 cells (Leukemia)
[20] = target: HLA-A2 molecule on the surface of tumor cell lines (human); assay: flow cytometry on JMN cells (Mesothelioma)
[21] = target: HLA-A2 molecule on the surface of tumor cell lines (human); assay: flow cytometry on SKMEL-5 cells (Melanoma)
[22] = target: HLA-A2 molecule on the surface of tumor cell lines (human); assay: flow cytometry on U87 cells (Glioblastoma)
[23] = target: HLA-A2 molecule on the surface of tumor cell lines (human); assay: flow cytometry on U251 cells (Glioblastoma)
[24] = target: HLA-A2 molecule on the surface of tumor cell lines (human); assay: flow cytometry on U2 OS cells (Osteosarcoma)
[25] = target: HLA-A2 molecule on the surface of tumor cell lines (human); assay: flow cytometry on OVCAR3-pp65 cells (Ovarian)
[26] = target: HLA-A2 molecule on the surface of tumor cell lines (human); assay: flow cytometry on HTB37-pp65/GFP cells (Colon)
[27] = target: HLA-A2 molecule on the surface of tumor cell lines (human); assay: flow cytometry on K562-HLA-A2 cells (Leukemia)
[28] = target: HLA-A2 molecule on the surface of tumor cell lines (human); assay: flow cytometry on Caco-2 (HTB-37) cells (Colon)
[29] = target: HLA-A2 molecule on the surface of tumor cell lines (human); assay: flow cytometry on SK-ES-1 cells (Ewing's sarcoma)
[30] = target: HLA-A2 molecule on the surface of tumor cell lines (human); assay: flow cytometry on MDA-MB-231(HTB-26) cells (Breast)
[31] = target: HLA-A2 molecule on the surface of tumor cell lines (human); assay: flow cytometry on MDA-MB-361(HTB-27) cells (Breast)
[32] = target: HLA-A2 molecule on the surface of tumor cell lines (human); assay: flow cytometry on MDA-MB-468(HTB-132) cells (Breast)
[33] = target: HLA-A2 molecule on the surface of tumor cell lines (human); assay: flow cytometry on NCI-H345 cells (Small cell lung cancer)
[34] = target: HLA-A2 molecule on the surface of tumor cell lines (human); assay: flow cytometry on NCI-H522 cells (Non-small cell lung cancer)
[35] = target: HLA-A2 molecule on the surface of tumor cell lines (human); assay: flow cytometry on JN-DSRCT cells (Desmoplastic small round cell tumor)
HLA-A2 on T2 cells = target: T1, HLA-A2 on T2 cells (human); assay: T2 cells pulsed with peptide, staining with anti-HLA-A2 BB7.2
T1 construct: No peptide added; also called T2 cells alone; T2 cells without peptide

[36] = target: T2, biotinylated HLA-A2/WT1126 (…) monomer (human, biotin at a specific biotinylation site at the C-terminus); assay: SPR (Biacore)
T2 construct: also called HLA-A2-WT1 monomer; WT1126/HLA-A2
Method: (§1) Kinetics and affinities of various antibodies and WT1₁₂₆/HLA-A2 were analyzed by surface plasmon resonance technology using a Biacore T100 instrument (GE healthcare). Biotinylated WT1₁₂₆/HLA-A2 was captured by streptavidin-fusion protein on a sensor chip (CM5). A control reference surface was prepared for nonspecific binding and refractive index changes. For analysis of the kinetics of interactions, varying concentrations of antibodies were injected at flow rate of 30 μl/min using a running buffer containing 10 mM HEPES, 150 mM NaCl, 3 mM EDTA, and 0.05% Surfactant P-20 (pH 7.4). The association and dissociation phase data were fitted simultaneously to a 1:1 model by using BIAevaluation 3.2. All the experiments were done at 25° C.

[37] = target: T3, HLA-A2/pp65 (…) on T2 cells (human; human cytomegalovirus); assay: flow cytometry on peptide-loaded T2 cells
T3 construct: also called T2 cells loaded with control peptide pp65

[38] = target: T2, biotinylated HLA-A2/WT1126 (…) monomer; assay: SPR Biacore T100; biotinylated pMHC captured, antibody injected; 1:1 fit
Method: as §1

[39] = target: HLA-A2/WT1 187-195 (…) complex (human, biotin at a specific biotinylation site at the C-terminus); assay: ELISA on wells coated with the named HLA-A2/peptide monomer, HRP anti-Flag detection, OD 490 nm
[40] = target: HLA-A2/WT1 235-243 (…) complex (human, biotin at a specific biotinylation site at the C-terminus); assay: as above
HLA-A2/CDR2 (…) tetramer [41] = target: T4, HLA-A2/CDR2 (…) tetramer (human); assay: flow cytometry of scFv-displaying yeast, negative control HLA-A2-CDR2 tetramer (y, Binding) against scFv expression (x)
T4 construct: Peptide from cerebellar degeneration-related protein 2; also called negative control (HLA-A2-CDR2) tetramer; irrelevant HLA-A2/CDR2-derived peptide

[42] = target: T2, biotinylated HLA-A2/WT1126 (…) monomer; assay: ELISA: wells coated with HLA-A2-WT1 (…) monomer, serially diluted scFv, HRP anti-Flag detection, OD 490 nm
Method: (§2) The specificity of individual phage clones, soluble scFv and scFv-Fc antibodies was assessed by ELISA at RT with indirectly coated HLA-A2/peptide complexes. Vinyl flat bottom microtiter plates (Thermo Fisher) were used for ELISA assays. Plates were initially coated overnight at 4° C. with BSA-biotin (10 g/ml; 50 μl/well). The next day, the contents were discarded and the plates incubated at RT with streptavidin (10 g/ml; 50 μl/well) for 1 h. The contents were discarded and the plates incubated with recombinant biotinylated HLA-A2/peptide complexes (5 μg/ml; 50 μl/well) at RT for 1 h. The plates were then incubated with 2% milk PBS (150 μl/well) at RT for 1 h. After blocking, the plates were washed 3 times with PBS and then incubated with bacterial supernatant from their respective HB2151 culture plate wells, purified scFv, or purified scFv-Fc at RT for 1 h. After the contents were discarded, the plates were washed 5 times with PBS, and then incubated with a horse radish peroxidase (HRP) conjugated mouse-anti-Flag tag antibody (1:5000 dilution, Sigma Aldrich) to detect the scFv, or a HRP conjugated goat-anti-human Fc antibody (0.5 μg/ml, Jackson Immunoresearch Laboratories) to detect the scFv-Fc. […]

[43] = target: T2, biotinylated HLA-A2/WT1126 (…) monomer; assay: ELISA: wells coated with HLA-A2-WT1 ([..]) monomer, serially diluted scFv, HRP anti-Flag detection, OD 490 nm
Method: as §2

HLA-A2/CDR2 (…) tetramer [44] = target: T4, HLA-A2/CDR2 (…) tetramer; assay: flow cytometry of CAR NK-92 cells, control HLA-A2/CDR2 tetramer (y) against GFP (x)

BB7.2 (antibody)
Ratio (BB7.2/isotype) of mean fluorescence intensity [1]: 4.5
Ratio (BB7.2/isotype) of mean fluorescence intensity [2]: 6.4
Ratio (BB7.2/isotype) of mean fluorescence intensity [3]: 0.9
Ratio (BB7.2/isotype) of mean fluorescence intensity [4]: 14.4
Ratio (BB7.2/isotype) of mean fluorescence intensity [5]: 86.8
Ratio (BB7.2/isotype) of mean fluorescence intensity [6]: 53.3
Ratio (BB7.2/isotype) of mean fluorescence intensity [7]: 40.5
Ratio (BB7.2/isotype) of mean fluorescence intensity [8]: 9.9
Ratio (BB7.2/isotype) of mean fluorescence intensity [9]: 1.1
Ratio (BB7.2/isotype) of mean fluorescence intensity [10]: 1.1
Ratio (BB7.2/isotype) of mean fluorescence intensity [11]: 28.3
Ratio (BB7.2/isotype) of mean fluorescence intensity [12]: 32.6
Ratio (BB7.2/isotype) of mean fluorescence intensity [13]: 1
Ratio (BB7.2/isotype) of mean fluorescence intensity [14]: 53.9
Ratio (BB7.2/isotype) of mean fluorescence intensity [15]: 209
Ratio (BB7.2/isotype) of mean fluorescence intensity [16]: 1.1
Ratio (BB7.2/isotype) of mean fluorescence intensity [17]: 7.8
Ratio (BB7.2/isotype) of mean fluorescence intensity [18]: 118
Ratio (BB7.2/isotype) of mean fluorescence intensity [19]: 114
Ratio (BB7.2/isotype) of mean fluorescence intensity [20]: 165
Ratio (BB7.2/isotype) of mean fluorescence intensity [21]: 32.1
Ratio (BB7.2/isotype) of mean fluorescence intensity [22]: 77.5
Ratio (BB7.2/isotype) of mean fluorescence intensity [23]: 16.2
Ratio (BB7.2/isotype) of mean fluorescence intensity [24]: 21.7
Ratio (BB7.2/isotype) of mean fluorescence intensity [25]: 10
Ratio (BB7.2/isotype) of mean fluorescence intensity [26]: 10.9
Ratio (BB7.2/isotype) of mean fluorescence intensity [27]: 28.8
Ratio (BB7.2/isotype) of mean fluorescence intensity [28]: 26.8
Ratio (BB7.2/isotype) of mean fluorescence intensity [29]: 7.7
Ratio (BB7.2/isotype) of mean fluorescence intensity [30]: 111
Ratio (BB7.2/isotype) of mean fluorescence intensity [31]: 0.9
Ratio (BB7.2/isotype) of mean fluorescence intensity [32]: 1.1
Ratio (BB7.2/isotype) of mean fluorescence intensity [33]: 6.2
Ratio (BB7.2/isotype) of mean fluorescence intensity [34]: 15.8
Ratio (BB7.2/isotype) of mean fluorescence intensity [35]: 5.1

B1: WT1126 peptide (RMFPNAPYL) by itself (peptide)
peptide: RMFPNAPYL
notes: also called WT1 peptide
binding result (HLA-A2 on T2 cells): binds

B2: WT1126-Tyr8Ala peptide (peptide)
peptide: RMFPNAPAL
notes: also called A8
binding result (HLA-A2 on T2 cells): binds

B3: WT1126-Arg1Ala peptide (peptide)
peptide: AMFPNAPYL
notes: also called A1
binding result (HLA-A2 on T2 cells): binds

B4: WT1126-Asn5Ala peptide (peptide)
peptide: RMFPAAPYL
notes: also called A5
binding result (HLA-A2 on T2 cells): binds

B5: Clone45 scFv (scFv)
scFv: EVQLLESGGGLVQPGGSLRLSCAASGFTFSSYAMSWVRQAPGKGLEWVSQIDPWGQETLYADSVKGRFTISRDNSKNTLYLQMNSLRAEDTAVYYCAKLTGRFDYWGQGTLVTVSSGGGGSGGGGSGGGGSTDIQMTQSPSSLSASVGDRVTITCRASQSISSYLNWYQQKPGKAPKLLIYSASQLQSGVPSRFSGSGSGTDFTLTISSLQPEDFATYYCQQGPGTPNTFGQGTKVEIKRA
notes: also called scFv Clone45; parental Clone45
Kd [36]: 300 nM
binding result [37]: no binding
Kd [38]: 263 nM
binding result [39]: no binding
binding result [40]: no binding
binding result (HLA-A2/CDR2 (…) tetramer [41]): no binding

B6: Q1L scFv (scFv)
scFv: B5 scFv with Q50L
notes: Clone45 with VH-Q50L; Soluble scFv; also called scFv Q1L
Kd [38]: 58.3 nM
koff [38]: 0.0055 s⁻¹
kon [38]: 94300 M⁻¹ s⁻¹

B7: Q2L scFv (scFv)
scFv: B5 scFv with Q50L, Q185L
notes: Clone45 with VH-Q50L and VL-Q53L; Soluble scFv; also called scFv Q2L
Kd [38]: 3.08 nM
binding result [39]: no binding
binding result [40]: no binding
EC50 (read off the curve) [42]: ~100 nM

B8: S3.3 scFv (scFv)
scFv: B5 scFv with Q50L, D133N, Q185L, S197N
notes: Soluble scFv, Ni-NTA purified, detected with anti-Flag
Kd [38]: 2.43 nM
binding result [39]: no binding
binding result [40]: no binding
EC50 (read off the curve) [43]: ~40 nM

B9: S3.1 scFv (scFv)
scFv: B5 scFv with Q50L, R87G, S209N
notes: as for B8
Kd [38]: 12.9 nM
binding result [39]: no binding
binding result [40]: no binding
EC50 (read off the curve) [43]: ~60 nM

B10: S3.6 scFv (scFv)
scFv: B5 scFv with Q50L, S163N, D202V
notes: as for B8
Kd [38]: 14.1 nM
binding result [39]: no binding
binding result [40]: no binding

B11: Q2L-CAR (other)
chain: B5 scFv with Q50L, Q185L
notes: Chimeric antigen receptor on the surface of human T cells or NK-92-MI cells; also called anti-HLA-A2/WT1126 CAR; NK-92-MI-scFv(Q2L); not shown: hinge region, CD8 alpha transmembrane domain, 4-1BB and CD3 zeta chain
binding result (HLA-A2/CDR2 (…) tetramer [44]): no binding
